According to US20140120555A1 (PIERRE FABRE MEDICAMENT, published 2014):
Values belong to the binder of their own block, whether it stands above or below them.

Experiments:
chimeric antibody c515H7 [1] = target: T1, chimeric antibody c515H7; experiment: SPR (Biacore X): h-FcγRI injected over c515H7 Mab immobilized on a CM4 sensorchip; Langmuir model
T1 construct: Human IgG1/kappa constant domains; also called c515H7 Mab; chimeric 515H7
Experimental: (§1) 2017 RU of c515H7 Mab were immobilized using the amine coupling kit chemistry on the second flowcell (FC2) of a CM4 sensorchip. The first flowcell (FC1) activated by NHS and EDC mixture and des-activated by ethanolamine served as the reference surface to check and subtract the non specific interaction between the analyte (Fc gamma receptors) and the sensorchip matrix.
(§2) The kinetic experiments were carried out at 25° Celsius at a flow rate of 30 μl/min. The HBS-EP buffer was used either as the running buffer or for the preparation of analyte solutions. The analyte solutions were injected during 90 seconds (association phase) with a 90 seconds delay (dissociation phase). An injection of running buffer as analyte was used as a double reference. All the sensorgrams were corrected by this double reference sensorgram.
(§3) After each injection of the analyte, the sensorchip was regenerated by injection of 20 mM NaOH, 75 mM NaCl solution.

[2] = target: T2, humanized antibody Hz515H7 VH1 D76N VL2; experiment: SPR (Biacore X): h-FcγRI injected over hz515H7VH1D76NVL2 Mab immobilized on a CM4 sensorchip; Langmuir model
T2 construct: IgG1/kappa; also called hz515H7VL2; hz515H7-1
T2 sequence (heavy, as listed by the source, chain 1 of 2): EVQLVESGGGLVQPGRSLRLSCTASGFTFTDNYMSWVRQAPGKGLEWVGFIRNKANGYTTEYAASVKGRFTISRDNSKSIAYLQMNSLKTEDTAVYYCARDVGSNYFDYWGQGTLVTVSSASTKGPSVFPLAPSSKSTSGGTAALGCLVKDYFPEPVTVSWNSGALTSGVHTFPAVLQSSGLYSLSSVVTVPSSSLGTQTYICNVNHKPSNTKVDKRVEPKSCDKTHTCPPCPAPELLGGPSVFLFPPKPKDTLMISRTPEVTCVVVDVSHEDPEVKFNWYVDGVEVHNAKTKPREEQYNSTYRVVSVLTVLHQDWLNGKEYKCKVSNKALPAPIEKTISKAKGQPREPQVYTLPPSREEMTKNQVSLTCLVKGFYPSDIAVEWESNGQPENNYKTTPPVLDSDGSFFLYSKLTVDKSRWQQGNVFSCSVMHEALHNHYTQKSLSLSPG
T2 sequence (light, as listed by the source, chain 2 of 2): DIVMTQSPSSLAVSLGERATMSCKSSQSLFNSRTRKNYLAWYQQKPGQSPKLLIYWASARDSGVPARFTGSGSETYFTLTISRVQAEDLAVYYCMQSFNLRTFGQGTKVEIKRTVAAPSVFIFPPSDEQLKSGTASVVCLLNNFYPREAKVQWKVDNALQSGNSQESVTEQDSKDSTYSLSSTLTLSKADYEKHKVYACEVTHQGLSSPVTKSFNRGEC
Experimental: (§4) The experiments were carried out using a Biacore X device. The soluble forms of the four Fc […]gamma receptors used in this study were purchased from R&D Systems: […]

chimeric antibody c515H7 [3] = target: T1, chimeric antibody c515H7; experiment: SPR (Biacore X): h-FcγRI injected over c515H7 Mab immobilized on a CM4 sensorchip; heterogeneous ligand model, minor component (0%)
Experimental: as §1, §2, §3

chimeric antibody c515H7 [4] = target: T1, chimeric antibody c515H7; experiment: SPR (Biacore X): h-FcγRI injected over c515H7 Mab immobilized on a CM4 sensorchip; heterogeneous ligand model, major component (100%)
Experimental: as §1, §2, §3

[5] = target: T2, humanized antibody Hz515H7 VH1 D76N VL2; experiment: SPR (Biacore X): h-FcγRI injected over hz515H7VH1D76NVL2 Mab immobilized on a CM4 sensorchip; heterogeneous ligand model, minor component (1%)
Experimental: as §4

[6] = target: T2, humanized antibody Hz515H7 VH1 D76N VL2; experiment: SPR (Biacore X): h-FcγRI injected over hz515H7VH1D76NVL2 Mab immobilized on a CM4 sensorchip; heterogeneous ligand model, major component (99%)
Experimental: as §4

chimeric antibody c515H7 [7] = target: T1, chimeric antibody c515H7; experiment: SPR (Biacore X): m-FcγRI injected over c515H7 Mab immobilized on a CM4 sensorchip; Langmuir model
Experimental: as §1, §2, §3

[8] = target: T2, humanized antibody Hz515H7 VH1 D76N VL2; experiment: SPR (Biacore X): m-FcγRI injected over hz515H7VH1D76NVL2 Mab immobilized on a CM4 sensorchip; Langmuir model
Experimental: as §1, with “1964” for “2017”, “hz515H7VH1D76NVL2” for “c515H7”
as §2
(§5) After each injection of the analyte, the sensorchip was regenerated by injection of either 20 mM NaOH solution after h-FcγRI and m-FcγRIII or 10 mM NaOH after h-FcγRIIIA and m-FcγRI.

chimeric antibody c515H7 [9] = target: T1, chimeric antibody c515H7; experiment: SPR (Biacore X): m-FcγRI injected over c515H7 Mab immobilized on a CM4 sensorchip; heterogeneous ligand model, major component (81%)
Experimental: as §1, §2, §3

chimeric antibody c515H7 [10] = target: T1, chimeric antibody c515H7; experiment: SPR (Biacore X): m-FcγRI injected over c515H7 Mab immobilized on a CM4 sensorchip; heterogeneous ligand model, minor component (19%)
Experimental: as §1, §2, §3

[11] = target: T2, humanized antibody Hz515H7 VH1 D76N VL2; experiment: SPR (Biacore X): m-FcγRI injected over hz515H7VH1D76NVL2 Mab immobilized on a CM4 sensorchip; heterogeneous ligand model, major component (82%)
Experimental: as §1, with “1964” for “2017”, “hz515H7VH1D76NVL2” for “c515H7”
as §2, §5

[12] = target: T2, humanized antibody Hz515H7 VH1 D76N VL2; experiment: SPR (Biacore X): m-FcγRI injected over hz515H7VH1D76NVL2 Mab immobilized on a CM4 sensorchip; heterogeneous ligand model, minor component (18%)
Experimental: as §1, with “1964” for “2017”, “hz515H7VH1D76NVL2” for “c515H7”
as §2, §5

chimeric antibody c515H7 [13] = target: T1, chimeric antibody c515H7; experiment: SPR (Biacore X): m-FcγRIII injected over c515H7 Mab immobilized on a CM4 sensorchip; Langmuir model
Experimental: as §1, §2, §3

[14] = target: T2, humanized antibody Hz515H7 VH1 D76N VL2; experiment: SPR (Biacore X): m-FcγRIII injected over hz515H7VH1D76NVL2 Mab immobilized on a CM4 sensorchip; Langmuir model
Experimental: as §1, with “1964” for “2017”, “hz515H7VH1D76NVL2” for “c515H7”
as §2
Using the Langmuïr model the constant of dissociation was around 17 and 18 nM.

chimeric antibody c515H7 [15] = target: T1, chimeric antibody c515H7; experiment: SPR (Biacore X): m-FcγRIII injected over c515H7 Mab immobilized on a CM4 sensorchip; heterogeneous ligand model, minor component (1%)
Experimental: as §1, §2, §3

chimeric antibody c515H7 [16] = target: T1, chimeric antibody c515H7; experiment: SPR (Biacore X): m-FcγRIII injected over c515H7 Mab immobilized on a CM4 sensorchip; heterogeneous ligand model, major component (99%)
Experimental: as §1, §2, §3

[17] = target: T2, humanized antibody Hz515H7 VH1 D76N VL2; experiment: SPR (Biacore X): m-FcγRIII injected over hz515H7VH1D76NVL2 Mab immobilized on a CM4 sensorchip; heterogeneous ligand model, major component (66%)
[18] = target: T2, humanized antibody Hz515H7 VH1 D76N VL2; experiment: SPR (Biacore X): m-FcγRIII injected over hz515H7VH1D76NVL2 Mab immobilized on a CM4 sensorchip; heterogeneous ligand model, minor component (34%)

T1 sequence (heavy, as listed by the source, chain 1 of 2): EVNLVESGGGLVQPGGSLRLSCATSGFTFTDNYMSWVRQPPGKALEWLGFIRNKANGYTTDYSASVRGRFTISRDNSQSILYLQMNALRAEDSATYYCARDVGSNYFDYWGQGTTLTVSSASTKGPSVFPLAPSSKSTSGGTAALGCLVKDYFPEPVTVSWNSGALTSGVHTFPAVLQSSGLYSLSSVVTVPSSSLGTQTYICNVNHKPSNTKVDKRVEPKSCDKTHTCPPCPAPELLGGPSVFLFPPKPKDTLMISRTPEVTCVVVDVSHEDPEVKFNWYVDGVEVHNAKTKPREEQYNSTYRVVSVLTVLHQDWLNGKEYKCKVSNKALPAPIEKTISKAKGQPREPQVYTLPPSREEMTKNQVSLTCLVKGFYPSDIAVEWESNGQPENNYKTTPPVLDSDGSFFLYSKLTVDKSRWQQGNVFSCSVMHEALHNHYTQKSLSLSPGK
T1 sequence (light, as listed by the source, chain 2 of 2): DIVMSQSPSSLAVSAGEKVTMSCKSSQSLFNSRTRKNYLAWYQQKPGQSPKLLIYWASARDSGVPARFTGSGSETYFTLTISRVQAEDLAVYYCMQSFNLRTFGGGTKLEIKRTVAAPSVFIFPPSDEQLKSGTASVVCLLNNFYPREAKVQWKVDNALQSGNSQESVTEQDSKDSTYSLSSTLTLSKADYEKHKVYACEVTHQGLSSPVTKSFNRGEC

t1/2 (chimeric antibody c515H7 [1]): 19.3 min
t1/2 [2]: 21.4 min
t1/2 (chimeric antibody c515H7 [3]): 158 min
t1/2 (chimeric antibody c515H7 [4]): 19.3 min
t1/2 [5]: 578 min
t1/2 [6]: 28.9 min
B1: Recombinant human FcγRI [CD64], Gln16-Pro288 with C-terminal 6-His tag (receptor)
chain: QVDTTKAVITLQPPWVSVFQEETVTLHCEVLHLPGSSSTQWFLNGTATQTSTPSYRITSASVNDSGEYRCQRGLSGRSDPIQLEIHRGWLLLQVSSRVFTEGEPLALRCHAWKDKLVYNVLYYRNGKAFKFFHWNSNLTILKTNISHNGTYHCSGMGKHRYTSAGISVTVKELFPAPVLNASVTSPLLEGNLVTLSCETKLLLQRPGLQLYFSFYMGSKTLRGRNTSSEYQILTARREDSGLYWCEAATEDGNVLKRSPELELQVLGLQLPTPHHHHHH
notes: range 16-288; Soluble form bought from R&D Systems; also called h-FcγRI

t1/2 (chimeric antibody c515H7 [7]): 0.17 min
t1/2 [8]: 0.18 min
t1/2 (chimeric antibody c515H7 [9]): 0.08 min
t1/2 (chimeric antibody c515H7 [10]): 0.3 min
t1/2 [11]: 0.11 min
t1/2 [12]: 0.53 min
B2: Recombinant mouse FcγRI [CD64], Gln25-Pro297 with C-terminal 6-His tag (receptor)
chain: EVVNATKAVITLQPPWVSIFQKENVTLWCEGPHLPGDSSTQWFINGTAVQISTPSYSIPEASFQDSGEYRCQIGSSMPSDPVQLQIHNDWLLLQASRRVLTEGEPLALRCHGWKNKLVYNVVFYRNGKSFQFSSDSEVAILKTNLSHSGIYHCSGTGRHRYTSAGVSITVKELFTTPVLRASVSSPFPEGSLVTLNCETNLLLQRPGLQLHFSFYVGSKILEYRNTSSEYHIARAEREDAGFYWCEVATEDSSVLKRSPELELQVLGPQSSAPHHHHHH
notes: range 25-297; Soluble form bought from R&D Systems; also called m-FcγRI

t1/2 (chimeric antibody c515H7 [13]): 2.61 min
t1/2 [14]: 3.17 min
t1/2 (chimeric antibody c515H7 [15]): 4.85 min
t1/2 (chimeric antibody c515H7 [16]): 2.59 min
t1/2 [17]: 313 min
t1/2 [18]: 0.39 min
B3: Recombinant mouse FcγRIII [CD16], Ala31-Thr215 with C-terminal 10-His tag (receptor)
chain: ALPKAVVKLDPPWIQVLKEDMVTLMCEGTHNPGNSSTQWFHNGRSIRSQVQASYTFKATVNDSGEYRCQMEQTRLSDPVDLGVISDWLLLQTPQRVFLEGETITLRCHSWRNKLLNRISFFHNEKSVRYHHYKSNFSIPKANHSHSGDYYCKGSLGSTQHQSKPVTITVQDPATTSSISLVWYHTHHHHHHHHHH
notes: Soluble form bought from R&D Systems; also called m-FcγRIII
